These are literature values, as cited in publication PMC3654037.

Usually Kd stands for the constant that tells how readily two partners part at equilibrium.

In data set [1] the target is nectin-2 (Homo sapiens) (UniProt Q92692).
Data set [2] concerns the target CD48 (Homo sapiens) (UniProt P09326).
Data set [3] addresses CD58 (Homo sapiens) (UniProt P19256).
The target in data set [4] is nectin-4 (Homo sapiens) (UniProt Q96NY8).
For data set [5], the target named is CD86 (Homo sapiens) (UniProt P42081).
UniProt P42081, sequence (P42081 24-247): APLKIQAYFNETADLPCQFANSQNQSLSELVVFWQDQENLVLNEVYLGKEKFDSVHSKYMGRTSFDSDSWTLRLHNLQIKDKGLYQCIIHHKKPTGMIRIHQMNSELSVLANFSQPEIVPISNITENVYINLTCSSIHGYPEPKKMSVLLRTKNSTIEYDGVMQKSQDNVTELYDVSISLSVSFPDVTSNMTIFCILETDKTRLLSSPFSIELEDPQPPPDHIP
Data set [6] deals with nectin-1 (Homo sapiens) (UniProt Q15223).

UniProt P19256, sequence (P19256 29-215): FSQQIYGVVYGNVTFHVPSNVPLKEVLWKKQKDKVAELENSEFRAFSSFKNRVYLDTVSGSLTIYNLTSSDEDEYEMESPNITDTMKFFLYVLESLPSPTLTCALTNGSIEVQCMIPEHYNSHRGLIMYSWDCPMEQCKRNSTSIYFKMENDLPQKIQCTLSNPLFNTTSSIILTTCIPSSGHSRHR
UniProt P09326, sequence (P09326 27-220): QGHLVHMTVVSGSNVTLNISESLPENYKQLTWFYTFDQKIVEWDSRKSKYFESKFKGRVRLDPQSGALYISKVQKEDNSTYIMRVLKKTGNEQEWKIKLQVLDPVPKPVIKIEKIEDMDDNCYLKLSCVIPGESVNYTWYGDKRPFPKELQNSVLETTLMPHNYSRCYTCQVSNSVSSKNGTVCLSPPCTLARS

As for nectin-2 (from UniProt Q92692), in data set [1], the equilibrium dissociation constant (Kd) was 0.4 µM. Turning to 2B4 (from UniProt Q9BZW8), in data set [2], the Kd was 10 µM. With CD2 (from UniProt P06729), the Kd in data set [3] is 10 µM. On to nectin-4 (from UniProt Q96NY8), for which the Kd in data set [4] was 153 µM. On to CD28 (from UniProt P10747), for which the Kd in data set [5] is 20 µM. As for nectin-1 (from UniProt Q15223), the Kd in data set [6] is 17.5 µM.
